Our source for the Kd values is patent US20150299277A1 (published 2015).

Experiment [1] has as its target T1, recombinant human histone H4 (UniProt P62805 2-103). As to the kind of experiment: SPR; EDTA/EGTA. A general note: SPR reads the build-up and loss of mass on a sensor chip optically.
For experiment [2], the target named is T2, recombinant human histone H3 (UniProt P68431 2-136). As to the kind of experiment: SPR; EDTA/EGTA.
Experiment [3] has as its target T1, recombinant human histone H4. In words: SPR; Ca2+.
For experiment [4], the target named is T2, recombinant human histone H3. As to the kind of experiment: SPR; Ca2+.
The target in experiment [5] is recombinant human histone H2B (human). In words: SPR; Ca2+.

B1: Myc- and His-tagged C-terminal domain human PTX3 (animal cell expressed) (other)
chain: CETAILFPMRSKKIFGSVHPVRPMRLESFSACIWVKATDVLNKTILFSYGTKRNPYEIQLYLSYQSIVFVVGGEENKLVAEAMVSLGRWTHLCGTWNSEEGLTSLWVNGELAATTVEMATGHIVPEGGILQIGQEKNGCCVGGGFDETLAFSGRLTGFNIWDSVLSNEEIRETGGAESCHIRGNIVGWGVTEIQPHGGAQYVS
Consider B1, for which the Kd in experiment [1] is 322 nM; in experiment [2] it was 4.77 nM; in experiment [3], 1.04 nM; in experiment [4], 5.64 nM.

B2: Escherichia coli-expressed N-terminal domain human PTX3 wherein the 47th, 49th, 103rd cysteine residues were replaced with serine residue (other)
chain: ENLYFQGENSDDYDLMYVNLDNEIDNGLHPTEDPTPSDSGQEHSEWDKLFIMLENSQMRERMLLQATDDVLRGELQRLREELGRLAESLARPSAPGAPAEARLTSALDELLQATRDAGRRLARMEGAEAQRPEEAGRALAAVLEELRQTRADLHAVQGWAARSWLPAG
Consider B2, for which the Kd came out at 10.9 nM in experiment [5], 1.95 nM in experiment [2], 1.21 nM in experiment [3] and 0.354 nM in experiment [4].

The term Kd denotes the constant that tells how readily two partners part at equilibrium.
